Assays:
Assay type in all cases: cell-based, human
[1] = test system: Cord blood-derived CD4+/CD25- cells; test: Priming of naive cord blood CD4+ T cells with autologous CD4- cells loaded with different sources of MMP-2; settings: for percentage of MMP-2-specific CD4+ T cells secreting IL-4, mean: 11 cord blood donors, 15 days after priming, after background subtraction; for mean of the individual differences in IL-4 secreting cells versus priming with active MMP-2: paired within donors
Method: Cord blood-derived CD4^+/CD25^− cells from 11 donors were stimulated with irradiated autologous CD4^− cells loaded either with active MMP-2, heat-inactivated (HI) MMP-2 or with MMP-2 pre-incubated with a specific inhibitor (+I). After 15 days, CD4^+ T cells were stimulated with the MMP-2 peptide pool (2 μM) for 6 h before intracellular staining of cytokines. (A) Density plots representing cytokine production by CD4^+ T cells are shown for the representative donor CB35 primed to MMP-2 either in its active form or after heat-inactivation. Numbers indicate percentages of cytokine-producing cells upon MMP-2 peptide stimulation. […] MMP-2 enzymatic activity was controlled (FIG. 13C-D). For each cytokine, 3 paired t-tests were used to compare active MMP-2 to heat inactivated MMP-2, to MMP-2+I, and to MMP-2 peptides. P values≦0.0167 (*) were considered statistically significant using a Bonferroni correction for 3 comparisons.
(§1) T Cell culture, stimulation and priming. Peripheral blood mononuclear cells (PBMCs) were purified from healthy donor-(HD) or cord blood donor-(CB) derived buffy coats (New York Blood Center) by Ficoll-Paque Plus (GE Healthcare) centrifugation. CD4^+/CD25^− cells were enriched (>90%) by magnetic cell sorting (Miltenyi Biotec) and primed/stimulated for 12-15 days either with irradiated (35Gy) autologous CD4^− cells or with autologous mature DCs in IMDM (GIBCO) supplemented with 1 mM HEPES (Life Technologies), 2 mM L-glutamine (Sigma), streptomycin (100 UI/mL)/penicillin (100 μg/mL) (Sigma) and 5% heat inactivated pooled human serum (PHS; Valley Biomedical) in the presence of rhIL-2 (10 UI/mL) and IL7 (5 ng/mL) (R&D Systems). Antigen presenting cells (CD4^− cells or DCs) were loaded either with peptides (2 μM) or with the MMP-2 protein (10 μg/mL) for 2 and 5 h, respectively. DCs were matured using the TLR3 agonist poly(I:C) at 5 μg/mL/10^6 DCs (Amersham). To generate T cell clones, we originally relied on our published methodology (Godefroy et al., 2006; Godefroy et al., 2007; the entire contents of each of which is incorporated herein by reference), involving enrichment of IFNγ-secreting cells upon short-term culture and peptide stimulation to generate MMP-2 responsive clones. Briefly, CD4^+ T cells were stimulated by CD4^− cells irradiated and pulsed with peptides for 12 days in the presence of rhIL-2 and rhIL-7. CD4^+ T cells were then restimulated with peptides for 3 hours before capturing IFNγ-secreting specific cells using a bispecific antibody coating T cells and capturing produced IFNγ. Positive cells were purified magnetically before being cloned. Although MMP-2-specific cells could be isolated, it was realized that IFNγ secretion was marginal compared to their secretion of IL-4 and TNFα. IFNγ-secreting cells in response to MMP-2 peptide pool were enriched by cytokine-guided magnetic cell sorting (Miltenyi Biotec) as described above and cloned the following day by limiting dilution in the presence of irradiated allogeneic PBMCs, 1 μg/mL phytohemagglutinin-L (Sigma) and 150 UI/mL rhIL-2. Tumor infiltrating lymphocytes (TILs) were provided by Pr. F. Jotereau and B. Dréno. They were obtained from tumor-invaded lymph nodes of melanoma patients (stage Mb) and expanded ex vivo. These patients received autologous TILs and IL-2 infusions in a clinical trial (Labarriere et al., 2002). This protocol was approved by the Institutional Ethics Committee and registered with regulatory state authority in France (Nantes).
Intracellular staining T-bet and GATA-3 expression was measured on resting T cells. Cells were fixed (4% paraformaldehyde for 10 min at RT), permeabilized with 0.1% saponin, and stained for intracellular transcription factors. Cytokine production by T cells was also assessed by intracellular staining T cells were stimulated with 2 μM overlapping peptides. After 1 h, 10 μg/mL brefeldin A was added to the cells. […]

[2] = test system: Cord blood-derived CD4+/CD25- cells; test: Priming of naive CD4+ T cells to Melan-A/MART-1 or NY-ESO-1 with DCs pre-incubated with MMP-2
Method: (A) Cord blood-derived CD4^+/CD25^− cells were stimulated with autologous poly(I:C)-matured DCs pulsed with overlapping peptides spanning either Melan-A/MART-1 or NY-ESO-1. Prior to poly(I:C) addition, DCs were incubated with or without MMP-2 (active or heat-inactivated) for 1 h. MMP-2 enzymatic activity was controlled (FIG. 13C-D). After 15 days, CD4^+ T cells were stimulated with the Melan-A/MART-1 or NY-ESO-1 peptide pools (2 μM) for 6 h before intracellular staining of cytokines. Percentages of antigen-specific CD4^+ T cells, secreting indicated cytokines, are represented for all donors. (B) Contour plots showing percentages of cytokine-producing CD4^+ T cells are shown for representative donor CB45 primed to Melan-A/MART-1. Percentage of secreting cells upon peptide stimulation was considered specific/positive when it exceeded by more than twofold the background (cytokine-secreting cells in the absence of stimulation) and had more than 0.5% of responding cells (after background subtraction) for at least one cytokine. For each cytokine, 2 paired t-tests were used to compare priming in the presence of active MMP-2 to either priming in the absence of active MMP-2 or with HI MMP-2. The Bonferroni adjustment was used for multiple comparisons. P values≦0.025 (*) were considered statistically significant using a Bonferroni correction for 2 comparisons.
as §1, with “(Nantes). […]” for “(Nantes).”

[3] = test system: Cord blood-derived CD4+/CD25- cells; test: Priming of naive CD4+ T cells with active MMP-2-loaded DCs with rhIL-12 or blocking mAb for OX40L or IL-4
Method: […] CD4^+ T cells were then stimulated with the MMP-2 peptide pool (2 μM) for 6 h before intracellular staining of cytokines. Contour plots representing cytokine production by CD4^+ T cells are shown for donor CB31 CD4^+ T cells primed to MMP-2 alone, or together with rhIL-12, anti-OX40L mAb or anti-IL-4 mAb. (B) Percentages of MMP-2-specific CD4^+ T cells, secreting indicated cytokines, are represented for all donors. For each cytokine, 5 paired t-tests were used to compare “no conditioning” versus various conditions. P values≦0.01 (*) were considered statistically significant using a Bonferroni correction for 5 comparisons.
as §1, with “IFNγ-secreting cells in response to MMP-2 peptide pool were enriched by cytokine-guided magnetic cell sorting (Miltenyi Biotec) as described above and cloned the following day by limiting dilution in the presence of irradiated allogeneic PBMCs, 1 μg/mL phytohemagglutinin-L (Sigma) and 150 UI/mL rhIL-2. Tumor infiltrating lymphocytes (TILs) were provided by Pr. F. Jotereau and B. Dréno. They were obtained from tumor-invaded lymph nodes of melanoma patients (stage Mb) and expanded ex vivo. These patients received autologous TILs and IL-2 infusions in a clinical trial (Labarriere et al., 2002). This protocol was approved by the Institutional Ethics Committee and registered with regulatory state authority in France (Nantes).” left out
Intracellular staining T-bet and GATA-3 expression was measured on resting T cells. […] Cytokine production by T cells was also assessed by intracellular staining T cells were stimulated with 2 μM overlapping peptides. […]

[4] = rhIL-12 10 ng/mL or mAb 10 μg/mL throughout priming

| Molecule | percentage of MMP-2-specific CD4+ T cells secreting IL-4, mean [1] [%] | mean of the individual differences in IL-4 secreting cells versus priming with active MMP-2 [1] | IFNγ, mean of differences relative to priming in the presence of active MMP-2 [2] | IL-2, mean of differences relative to priming in the presence of active MMP-2 [2] | IL-4, mean of differences relative to priming in the presence of active MMP-2 [2] | IFNγ-secreting cells ([3]; doses as low as 1 ng/mL) | percentages of IL4-secreting T cells ([3]; doses as low as 1 ng/mL) | IFNγ secretion by primed MMP-2-specific CD4+ T cells versus no conditioning [3, 4] | IL-4 secretion by primed MMP-2-specific CD4+ T cells versus no conditioning [3, 4] |
| --- | --- | --- | --- | --- | --- | --- | --- | --- | --- |
| heat-inactivated MMP-2: MMP-2 enzyme inactivated by heating to 56° C. for 45 min (protein, UniProt P08253 110-660, looked up, heat-inactivated) 72 kDa type IV collagenase: YNFFPRKPKWDKNQITYRIIGYTPDLDPETVDDAFARAFQVWSDVTPLRFSRIHDGEADIMINFGRWEHGDGYPFDGKDGLLAHAFAPGTGVGGDSHFDDDELWTLGEGQVVRVKYGNADGEYCKFPFLFNGKEYNSCTDTGRSDGFLWCSTTYNFEKDGKYGFCPHEALFTMGGNAEGQPCKFPFRFQGTSYDSCTTEGRTDGYRWCGTTEDYDRDKKYGFCPETAMSTVGGNSEGAPCVFPFTFLGNKYESCTSAGRSDGKMWCATTANYDDDRKWGFCPDQGYSLFLVAAHEFGHAMGLEHSQDPGALMAPIYTYTKNFRLSQDDIKGIQELYGASPDIDLGTGPTPTLGPVTPEICKQDIVFDGIAQIRGEIFFFKDRFIWRTVTPRDKPMGPLLVATFWPELPEKIDAVYEAPQEEKAVFFAGNEYWIYSASTLERGYPKPLTSLGLPPDVQRVDAAFNWSKNKKTYIFAGDKFWRYNEVKKKMDPGFPKLIADAWNAIPDNLDAVVDLQGGGHSYFFKGAYYLKLENQSLKSVKFGSIKSDWLGC | 0.45 | 1.80 | 0.21 | 0.11 | 1.92 |  |  |  |  |
| MMP-2+I: MMP-2 enzyme inactivated by addition of the MMP-2 inhibitor III at 100 nM for 20 min (protein, UniProt P08253 110-660, looked up, with MMP-2 inhibitor III) 72 kDa type IV collagenase: YNFFPRKPKWDKNQITYRIIGYTPDLDPETVDDAFARAFQVWSDVTPLRFSRIHDGEADIMINFGRWEHGDGYPFDGKDGLLAHAFAPGTGVGGDSHFDDDELWTLGEGQVVRVKYGNADGEYCKFPFLFNGKEYNSCTDTGRSDGFLWCSTTYNFEKDGKYGFCPHEALFTMGGNAEGQPCKFPFRFQGTSYDSCTTEGRTDGYRWCGTTEDYDRDKKYGFCPETAMSTVGGNSEGAPCVFPFTFLGNKYESCTSAGRSDGKMWCATTANYDDDRKWGFCPDQGYSLFLVAAHEFGHAMGLEHSQDPGALMAPIYTYTKNFRLSQDDIKGIQELYGASPDIDLGTGPTPTLGPVTPEICKQDIVFDGIAQIRGEIFFFKDRFIWRTVTPRDKPMGPLLVATFWPELPEKIDAVYEAPQEEKAVFFAGNEYWIYSASTLERGYPKPLTSLGLPPDVQRVDAAFNWSKNKKTYIFAGDKFWRYNEVKKKMDPGFPKLIADAWNAIPDNLDAVVDLQGGGHSYFFKGAYYLKLENQSLKSVKFGSIKSDWLGC | 0.12 | 1.47 |  |  |  |  |  |  |  |
| rhIL-12: recombinant human IL-12 from R&D Systems (protein) chain 1: RNLPVATPDPGMFPCLHHSQNLLRAVSNMLQKARQTLEFYPCTSEEIDHEDITKDKTSTVEACLPLELTKNESCLNSRETSFITNGSCLASRKTSFMMALCLSSIYEDLKMYQVEFKTMNAKLLMDPKRQIFLDQNMLAVIDELMQALNFNSETVPQKSSLEEPDFYKTKIKLCILLHAFRIRAVTIDRVMSYLNAS chain 2: IWELKKDVYVVELDWYPDAPGEMVVLTCDTPEEDGITWTLDQSSEVLGSGKTLTIQVKEFGDAGQYTCHKGGEVLSHSLLLLHKKEDGIWSTDILKDQKEPKNKTFLRCEAKNYSGRFTCWWLTTISTDLTFSVKSSRGSSDPQGVTCGAATLSAERVRGDNKEYEYSVECQEDSACPAAEESLPIEVMVDAVHKLKYENYTSSFFIRDIIKPDPPKNLQLKPLKNSRQVEVSWEYPDTWSTPHSYFSLTFCVQVQGKSKREKKDRVFTDKTSATVICRKNASISVRAQDRYYSSSWSEWASVPCS |  |  |  |  |  | more | lower percentages | more | less |

Reference: patent US9395368B2, “Methods, agents and peptides for inducing an immune response to matrix metalloproteinase-2 expressing tumors” (New York University, priority 2010, dated 2016)
